Results reported in article PMC11718114.

Each binder was assayed against PI3Kα-RBD (PIK3CA-RBD(157-289)), P42336 (assay: ITC). Details: chain shown with the change;; parent: est. 8.0 µM; read off a plot.

Row | Kd [µM] | Binder
1 | 21 | RRAS2 (wild type), P62070 F75A (protein) MAAAGWRDGSGQEKYRLVVVGGGGVGKSALTIQFIQSYFVTDYDPTIEDSYTKQCVIDDRAARLDILDTAGQEEAGAMREQYMRTGEGFLLVFSVTDRGSFEEIYKFQRQILRVKDRDEFPMILIGNKADLDHQRQVTQEEGQQLARQLKVTYMEASAKIRMNVDQAFHELVRVIRKFQ
2 | 12 | RRAS2 (wild type), P62070 E74A (protein) MAAAGWRDGSGQEKYRLVVVGGGGVGKSALTIQFIQSYFVTDYDPTIEDSYTKQCVIDDRAARLDILDTAGQEAFGAMREQYMRTGEGFLLVFSVTDRGSFEEIYKFQRQILRVKDRDEFPMILIGNKADLDHQRQVTQEEGQQLARQLKVTYMEASAKIRMNVDQAFHELVRVIRKFQ
3 | 130 | RRAS2 (wild type), P62070 M78A (protein) MAAAGWRDGSGQEKYRLVVVGGGGVGKSALTIQFIQSYFVTDYDPTIEDSYTKQCVIDDRAARLDILDTAGQEEFGAAREQYMRTGEGFLLVFSVTDRGSFEEIYKFQRQILRVKDRDEFPMILIGNKADLDHQRQVTQEEGQQLARQLKVTYMEASAKIRMNVDQAFHELVRVIRKFQ
